The results in this text go back to PMC6630058 (Biotechnology Reports, 2019).

For the test, the target named is Toxoplasma gondii major surface antigen 1 (SAG1) (Toxoplasma gondii, RH strain, UniProt P13664). Nature of the test: far-Western, overlay or dot blot.
Chain of Toxoplasma gondii major surface antigen 1 (SAG1) (P13664 48-336): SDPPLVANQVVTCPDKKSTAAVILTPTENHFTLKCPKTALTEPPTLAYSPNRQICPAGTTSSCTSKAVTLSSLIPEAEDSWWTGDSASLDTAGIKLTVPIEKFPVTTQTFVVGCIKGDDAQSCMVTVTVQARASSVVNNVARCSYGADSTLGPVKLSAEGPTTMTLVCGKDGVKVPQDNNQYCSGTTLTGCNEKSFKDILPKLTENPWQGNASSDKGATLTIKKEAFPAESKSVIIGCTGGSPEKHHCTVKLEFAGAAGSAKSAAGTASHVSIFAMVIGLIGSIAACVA

B1: scFvSG15(VLT8P)-AP conjugate (scFvSG15-AP with T8P in FR-1 of the kappa VL) (scFv, V domains shown)
VH: QVQLQQSGAELVRPGVSVKISCKGSGYTFTDYGMHWVKQSHAKSLEWIGIISTYSGDASYNQKFKGKATMTVDKSSSTAYMELARLTSEDSAIYYCARSSTWYYFDYWGQGTTLTVSS
VL: DIQVTQTPSSLSASLGDRVTISCRASQDISNYLNWYQQKPDGTVKLLIYYTSRLHSGVPSRFSGSGSGTDYSLTISNLEQEDIATYFCQQGNTLPYTFGGGTKLEIK
Regarding B1, the binding result is listed as “binds”.
